Several values for one entry are separate records, joined by “and”; a condition that tells them apart may be missing. Equal entries are not always repeated.
Assays:
CT-26 cells = assay: Cell viability (CCK-8) of CT-26 cells; format: cell-based, mouse; details: 1 IU/mL; for cell viability: 24 h, no anticancer pretreatment; for reduction of viability of cells pretreated with DOX and MTX, higher extent: 24 h after DOX or MTX pretreatment; for reduction in cell viability in cells pretreated with GEM: 24 h after GEM pretreatment
Description: CT-26 and MC-38 cells (10^4 cells per well) were seeded into three wells of a 96-well plate and incubated at 37° C. The next day, the culture medium was replaced with 100 μL of fresh medium containing the above concentrations of anticancer agents. After incubation at 37° C. for 4 h, the culture medium was removed and the cells were washed three times with PBS. […] Finally, CCK-8 reagent (10 μL/well) was added for 3 h at 37° C., and the amount of color in each sample was measured at OD450.

ecto-CRT on CT-26 cells = target: T1, ecto-CRT on CT-26 cells (Mus musculus, UniProt P14211); assay: Flow cytometry binding to anticancer-agent-treated CT-26 cells; format: cell-based; details: for binding to cells: 100 nM protein; for binding after pretreatment with anti-CRT antibodies: CT-26 cells treated with DOX or MTX
T1 sequence (P14211 18-416): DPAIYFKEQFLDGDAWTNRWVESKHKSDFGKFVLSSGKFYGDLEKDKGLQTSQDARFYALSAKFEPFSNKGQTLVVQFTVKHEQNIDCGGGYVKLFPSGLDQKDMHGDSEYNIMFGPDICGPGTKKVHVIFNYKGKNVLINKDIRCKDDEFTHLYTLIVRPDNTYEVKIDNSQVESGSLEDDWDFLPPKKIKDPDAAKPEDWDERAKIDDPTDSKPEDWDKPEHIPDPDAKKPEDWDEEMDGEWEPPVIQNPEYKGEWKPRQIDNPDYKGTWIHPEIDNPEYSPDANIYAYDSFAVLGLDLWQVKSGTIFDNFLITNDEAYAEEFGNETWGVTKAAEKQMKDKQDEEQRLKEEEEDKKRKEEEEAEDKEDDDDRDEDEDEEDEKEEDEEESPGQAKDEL
Description: (§1) Cells were cultured at 37° C. in DMEM medium supplemented with 10% FBS and 100 U of streptomycin/penicillin in an atmosphere of 5% CO2. Cells were treated with each anticancer drug [3 μM methotrexate (MTX), 25 μM […] (DOX), or 15 μM gemcitabine (GEM)] to induce apoptosis (Y. Zhang, et al., Cancers, 13 (11), 2801, 2021). After 4 h of incubation, the cells were scraped and detached from the plate. The cells (10^5) were fixed with 1% PFA for 15 min and then treated with 100 nM of PASylated recombinant proteins for 1 h on ice. After washing five times with cold PBS buffer containing 0.1% Tween-20 (T-PBS), the cells were incubated with anti-His tagged monobodies (diluted to 1:1000) for 1 h and then treated with Alexa Fluor 488-conjugated secondary antibodies (5 μg/mL) for 1 h. Fluorescence signals were detected by FACSCanto II Flow Cytometer (BD Biosciences, USA). For blocking experiments, cells were first incubated with anticancer agents for 4 h and fixed with 1% PFA. Cells were then incubated with anti-CRT antibodies (diluted to1: 400) for 1 h to mask ecto-CRT. Cells were stained with PASylated recombinant proteins and followed the same procedure as described above.

ecto-CRT on MC-38 cells [1] = target: T2, ecto-CRT on MC-38 cells (Mus musculus, UniProt P14211); assay: Flow cytometry binding to anticancer-agent-treated MC-38 cells; format: cell-based; set-up: endogenous in cells; host or cells: MC-38 mouse colon cancer cells (in culture); details: for binding to cells: 100 nM protein; for binding after pretreatment with anti-CRT antibodies: MC-38 cells treated with DOX or MTX
T2 sequence (P14211 18-416): T1 sequence (P14211 18-416)
Description: as §1

ecto-CRT on MC-38 cells [2] = target: T2, ecto-CRT on MC-38 cells; assay: Confocal immunofluorescence staining of MC-38 cells; format: cell-based; set-up: endogenous in cells; host or cells: CT-26 and MC-38 mouse colon cancer cells (in culture, or CT-26 tumors in mice)
Description: PASylated CRT-targeted L-ASNases bound to ecto-CRT on cells were visualized by confocal immunofluorescence microscopy with reference to the prior art (Y. Zhang, et al., Cancers, 13(11), 2801, 2021). After overnight incubation in a cover-glass, CT-26 and MC-38 cells (104) were treated with anticancer agents for 4 h at 37° C. The cells were then fixed with 1% PFA for 15 min, stained with 100 nM PASylated recombinant proteins for 1 h on ice, and treated with anti-His tagged monobodies (diluted to 1:1000) and Alexa Fluor 488-conjugated secondary antibody for 1 h (5 μg/mL). Cell membranes were stained with Alexa Fluor 555-conjugated wheat germ agglutinin (WGA) (diluted to 1:5000). Between each step, samples were washed with cold T-PBS. Finally, the cells were incubated with 4′,6-diamidino-2-phenylindole (DAPI) (Thermo Fisher Scientific, USA) to stain the nuclei. Immunofluorescence signals were imaged using an LSM510 confocal microscope (ZEISS, Jena, Germany) and data were analyzed with ZEN-LSM imaging software (ZEISS, Jena, Germany).

MC-38 tumor = assay: In vivo anti-cancer efficacy in MC-38 tumor-bearing mice; set-up: species or system C57BL/6 mice; details: summary statement
Description: (§2) CT-26 and MC-38 tumor cells (106 in 100 μL PBS) were implanted subcutaneously into the right flanks of 6-week-old BALB/c and C57BL/6 female mice (Orient company, Korea), respectively. When the tumors reached about 100 mm^3, the tumor-bearing mice were injected intraperitoneally with anticancer agents (15 mg/kg GEM, 10 mg/kg DOX or 2 mg/kg MTX) three times every 2 days. Simultaneously, the mice were injected intravenously with the PASylated recombinant proteins of the present invention five times every 2 days. The length (L), width (W), and height (H) of each tumor were recorded every 3 days using a digital caliper, and the tumor volume (mm3) was calculated using the following formula (L×H×W)/2. Mice were euthanized when tumors were ˜1,500 mm^3 and all animal experiments were performed in accordance with the general principles and procedures outlined in the National Institutes of Health Guidelines, and all protocols were approved by the Chonnam National University Animal Care and Use Committee (permit number: HCRL 16-001).

CT-26 tumor = assay: In vivo anti-cancer efficacy in CT-26 tumor-bearing mice; details: for tumor suppression in mice treated with GEM: combination with GEM (non-ICD-inducing); for tumor growth in mice treated with ICD-inducing drugs: summary statement, doxorubicin and mitozantrone
Description: as §2

[3] = CT-26 cells treated with DOX and MTX
[4] = CT-26 cells with GEM or PBS treatment
[5] = MC-38 cells treated with DOX and MTX
[6] = MC-38 cells with GEM or PBS treatment
[7] = MC-38 cells treated with DOX or MTX

B1: CRT3LP: PASylated L-ASNase fused with CRT-targeting CRT3 monobody at N-terminus and PAS200 tag plus His6 tag at C-terminus (protein)
chain: MASVSDVPRDLEVVAATPTSLLISWKLGFFKRYYRITYGETGGNSPVQEFTVPGSKSTATISGLKPGVDYTITVYAVTGQPMYGQPMYPISINYRTSGGGGSGGGGSEFLPNITILATGGTIAGGGDSATKSNYTAGKVGVENLVNAVPQLKDIANVKGEQVVNIGSQDMNDDVWLTLAKKINTDCDKTDGFVITHGTDTMEETAYFLDLTVKCDKPVVMVGAMRPSTSMSADGPFNLYNAVVTAADKASANRGVLVVMNDTVLDGRDVTKTNTTDVATFKSVNYGPLGYIHNGKIDYQRTPARKHTSDTPFDVSKLNELPKVGIVYNYANASDLPAKALVDAGYDGIVSAGVGNGNLYKTVFDTLATAAKNGTAVVRSSRVPTGATTQDVEVDDAKYGFVASGTLNPQKARVLLQLALTQTKDPQQIQQIFNQYGSSGGGGSGGGGSASPAAPAPASPAAPAPSAPAASPAAPAPASPAAPAPSAPAASPAAPAPASPAAPAPSAPAASPAAPAPASPAAPAPSAPAASPAAPAPASPAAPAPSAPAASPAAPAPASPAAPAPSAPAASPAAPAPASPAAPAPSAPAASPAAPAPASPAAPAPSAPAASPAAPAPASPAAPAPSAPAASPAAPAPASPAAPAPSAPAAGSHHHHHH
cell viability (CT-26 cells): barely affected | reduction of viability of cells pretreated with DOX and MTX, higher extent (CT-26 cells): 2 fold | reduction in cell viability in cells pretreated with GEM (CT-26 cells): not observed | binding to cells (ecto-CRT on CT-26 cells; [3]): efficiently bound | binding after pretreatment with anti-CRT antibodies (ecto-CRT on CT-26 cells): significantly inhibited | binding to cells (ecto-CRT on CT-26 cells; [4]): not | binding to cells (ecto-CRT on MC-38 cells [1]; [5]): efficiently bound | binding after pretreatment with anti-CRT antibodies (ecto-CRT on MC-38 cells [1]): significantly inhibited | binding to cells (ecto-CRT on MC-38 cells [1]; [6]): not | immunofluorescence staining, binding to cells (ecto-CRT on MC-38 cells [2]; [7]): only bound | immunofluorescence staining, binding to cells (ecto-CRT on MC-38 cells [2]; MC-38 cells treated with GEM): not | tumor growth in mice treated with ICD-inducing drugs (MC-38 tumor): significantly inhibiting tumor growth | sudden death of mice (CT-26 tumor; 20 IU CRT3LP per injection, DOX-treated mice, by day 12): caused sudden death and 2 out of 3 and Two of the mice injected with 20 IU died | optimal therapeutic dose (CT-26 tumor; DOX-treated mice): 8 IU/injection/mouse | tumor suppression in mice treated with GEM (CT-26 tumor): not and did not enhance tumor suppression | tumor growth in mice treated with ICD-inducing drugs (CT-26 tumor): significantly inhibiting tumor growth

B2: CRT4LP: PASylated L-ASNase fused with CRT-targeting CRT4 monobody at N-terminus and PAS200 tag plus His6 tag at C-terminus (protein)
chain: MASVSDVPRDLEVVAATPTSLLISWGQPMYGQPMYYYRITYGETGGNSPVQEFTVPGSKSTATISGLKPGVDYTITVYAVTKLGFFKRPISINYRTSGGGGSGGGGSEFLPNITILATGGTIAGGGDSATKSNYTAGKVGVENLVNAVPQLKDIANVKGEQVVNIGSQDMNDDVWLTLAKKINTDCDKTDGFVITHGTDTMEETAYFLDLTVKCDKPVVMVGAMRPSTSMSADGPFNLYNAVVTAADKASANRGVLVVMNDTVLDGRDVTKTNTTDVATFKSVNYGPLGYIHNGKIDYQRTPARKHTSDTPFDVSKLNELPKVGIVYNYANASDLPAKALVDAGYDGIVSAGVGNGNLYKTVFDTLATAAKNGTAVVRSSRVPTGATTQDVEVDDAKYGFVASGTLNPQKARVLLQLALTQTKDPQQIQQIFNQYGSSGGGGSGGGGSASPAAPAPASPAAPAPSAPAASPAAPAPASPAAPAPSAPAASPAAPAPASPAAPAPSAPAASPAAPAPASPAAPAPSAPAASPAAPAPASPAAPAPSAPAASPAAPAPASPAAPAPSAPAASPAAPAPASPAAPAPSAPAASPAAPAPASPAAPAPSAPAASPAAPAPASPAAPAPSAPAASPAAPAPASPAAPAPSAPAAGSHHHHHH
cell viability (CT-26 cells): barely affected | reduction of viability of cells pretreated with DOX and MTX, higher extent (CT-26 cells): 2 fold | reduction in cell viability in cells pretreated with GEM (CT-26 cells): not observed | binding to cells (ecto-CRT on CT-26 cells; [3]): efficiently bound | binding after pretreatment with anti-CRT antibodies (ecto-CRT on CT-26 cells): significantly inhibited | binding to cells (ecto-CRT on CT-26 cells; [4]): not | binding to cells (ecto-CRT on MC-38 cells [1]; [5]): efficiently bound | binding after pretreatment with anti-CRT antibodies (ecto-CRT on MC-38 cells [1]): significantly inhibited | binding to cells (ecto-CRT on MC-38 cells [1]; [6]): not | immunofluorescence staining, binding to cells (ecto-CRT on MC-38 cells [2]; [7]): only bound | immunofluorescence staining, binding to cells (ecto-CRT on MC-38 cells [2]; MC-38 cells treated with GEM): not | tumor growth in mice treated with ICD-inducing drugs (MC-38 tumor): significantly inhibiting tumor growth | tumor suppression in mice treated with GEM (CT-26 tumor): not and did not enhance tumor suppression | tumor growth in mice treated with ICD-inducing drugs (CT-26 tumor): significantly inhibiting tumor growth
